The source of these data is publication PMC6913129.

Experiment in all cases: BLI
The target in data set [1] is T1, IFIT5 (UniProt Q13325 1-482).
T1 sequence: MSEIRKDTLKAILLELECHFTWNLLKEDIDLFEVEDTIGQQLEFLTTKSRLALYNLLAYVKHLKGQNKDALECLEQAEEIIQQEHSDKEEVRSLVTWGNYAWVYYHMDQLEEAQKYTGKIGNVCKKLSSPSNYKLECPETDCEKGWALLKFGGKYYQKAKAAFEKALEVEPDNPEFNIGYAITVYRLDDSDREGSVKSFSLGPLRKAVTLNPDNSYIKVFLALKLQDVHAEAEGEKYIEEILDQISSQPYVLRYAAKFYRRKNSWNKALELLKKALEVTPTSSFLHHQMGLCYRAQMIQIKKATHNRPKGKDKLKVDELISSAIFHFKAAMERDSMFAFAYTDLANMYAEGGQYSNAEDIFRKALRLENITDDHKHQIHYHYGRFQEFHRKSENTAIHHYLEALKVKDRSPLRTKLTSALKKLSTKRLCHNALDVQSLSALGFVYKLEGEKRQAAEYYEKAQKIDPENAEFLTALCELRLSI

The next data set has as its target T2, IFIT1 (UniProt P09914 1-478).
T2 sequence: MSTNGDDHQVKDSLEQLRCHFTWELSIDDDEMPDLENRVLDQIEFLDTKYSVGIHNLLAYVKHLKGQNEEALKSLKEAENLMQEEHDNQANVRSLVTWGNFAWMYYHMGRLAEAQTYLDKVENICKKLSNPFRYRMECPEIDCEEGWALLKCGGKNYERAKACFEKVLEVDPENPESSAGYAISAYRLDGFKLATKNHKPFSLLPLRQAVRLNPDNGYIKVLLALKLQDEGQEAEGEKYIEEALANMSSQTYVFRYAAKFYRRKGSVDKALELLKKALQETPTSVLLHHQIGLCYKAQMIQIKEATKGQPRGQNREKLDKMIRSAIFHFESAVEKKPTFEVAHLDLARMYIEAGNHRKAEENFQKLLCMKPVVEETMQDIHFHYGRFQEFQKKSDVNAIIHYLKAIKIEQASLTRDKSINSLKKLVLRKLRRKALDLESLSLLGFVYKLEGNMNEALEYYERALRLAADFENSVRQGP

Data set [2] concerns the target T1, IFIT5. This is another data set of the same source.

Like-named read-outs stand apart in the source and are kept apart here.

Consider AGGAGACCGGCCUCGA (ssRNA, 5' NADH cap (first A is the NADH adenosine, inferred)) [NADH-16ntRNA], for which the binding result with IFIT5 [1] was “binds”.
In turn, AGGAGACCGGCCUCGA (ssRNA, 5' m7GpppA cap 0) [m7GpppAG-16ntRNA (m7GpppA)] showed a Kd with IFIT1 of 6.12 nM.
For the molecule AGGAGACCGGCCUCGA (ssRNA, 5' NAD+ cap (first A is the NAD adenosine, inferred)) [NAD+-16ntRNA], in the data set with IFIT5 [2], the binding result is recorded as “binds”.
AGGAGACCGGCCUCGA (ssRNA, 5' m7GpppAm cap 1 (2'-O-methyl A1)) [m7GpppAmG-16ntRNA]: in the data set with IFIT1, the Kd was 44 nM.
The same measure, in the same setting: in the case of AGGAGACCGGCCUCGA (ssRNA, 5' triphosphate) [pppA-16ntRNA] it was 23.4 nM.
The same measure, in the same setting: in the case of AGGAGACCGGCCUCGA (ssRNA, 5' GpppA cap (unmethylated; cap G not in strand)) [GpppA-16ntRNA] it was 2.65 nM.
